Drawing on patent EP4799649A1 (RemeGen Co., Ltd., dated 2026), this text covers EC50 for 2 molecules.

For assay [1], the target named is T1, Blys homotrimer (UniProt Q9Y275 134-285).
T1 construct: also called BAFF; B lymphocyte stimulator
Briefly: ELISA on Blys homotrimer.

Assay [2] deals with T2, APRIL homotrimer (UniProt O75888 105-250, limits assumed).
T2 construct: also called a proliferation-inducing ligand
T2 sequence (looked up): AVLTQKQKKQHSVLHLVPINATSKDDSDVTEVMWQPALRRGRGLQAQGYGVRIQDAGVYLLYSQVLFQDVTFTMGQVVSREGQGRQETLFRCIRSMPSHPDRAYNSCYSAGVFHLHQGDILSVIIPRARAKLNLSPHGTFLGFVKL
Briefly: ELISA on APRIL homotrimer. (An ELISA detects its analyte on a solid surface through an enzyme-linked reagent.)

T1 sequence (Q9Y275 134-285 limits assumed): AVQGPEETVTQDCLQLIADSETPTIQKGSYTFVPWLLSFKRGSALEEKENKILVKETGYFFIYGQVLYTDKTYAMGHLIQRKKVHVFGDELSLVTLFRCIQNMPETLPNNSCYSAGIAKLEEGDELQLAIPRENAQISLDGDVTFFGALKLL

B1: telitacicept (Fc fusion)
chain: SRVDQEERFPQGLWTGVAMRSCPEEQYWDPLLGTCMSCKTICNHQSQRTCAAFCRSLSCRKEQGKFYDHLLRDCISCASICGQHPKQCAYFCENKLRSPVNLPPELDKTHTCPPCPAPEAEGAPSVFLFPPKPKDTLMISRTPEVTCVVVDVSHEDPEVKFNWYVDGVEVHNAKTKPREEQYNSTYRVVSVLTVLHQDWLNGKEYKCKVSNKALPSSIEKTISKAKGQPREPQVYTLPPSRDELTKNQVSLTCLVKGFYPSDIAVEWESNGQPENNYKTTPPVLDSDGSFFLYSKLTVDKSRWQQGNVFSCSVMHEALHNHYTQKSLSLSPGK
notes: TACI-Fc fusion protein (truncated TACI plus optimized human IgG1 Fc); also called RC18; Tai'ai
Consider B1, for which the concentration for a half-maximal effect (EC50) in assay [1] came out at 219 pM; in assay [2] it was 1100 pM.

B2: povetacicept (Fc fusion)
chain: SLSCRKEQGEYYDHLLRDCISCASICGQHPKQCADFCENKLRSGSGGGGSEPKSSDKTHTCPPCPAPEAEGAPSVFLFPPKPKDTLMISRTPEVTCVVVDVSHEDPEVKFNWYVDGVEVHNAKTKPREEQYNSTYRVVSVLTVLHQDWLNGKEYKCKVSNKALPAPIEKTISKAKGQPREPQVYTLPPSRDELTKNQVSLTCLVKGFYPSDIAVEWESNGQPENNYKTTPPVLDSDGSFFLYSKLTVDKSRWQQGNVFSCSVMHEALHNHYTQKSLSLSPG
notes: Fc fusion protein of an engineered TACI domain
With B2, the concentration for a half-maximal effect (EC50) was found to be 57 pM in assay [1] and 128 pM in assay [2].

As a reminder, the EC50 is the concentration that produces a half-maximal response. Low readings indicate greater potency, high ones weaker potency.
